Source: the DeepSol protein solubility set

Test: soluble on expression in E. coli; label from the status in PepcDB or PDB records

MAESRSPDRGAKEDKPRPRNISREESLQLEGYKHACHALLHAPSQAKLFDRVPIRRVLLMMMRFDGRLGFPGGFVDTRDISLEEGLKRELEEELGPALATVEVTEDDYRSSQVREHPQKCVTHFYIKELKLEEIERIEAEAVNAKDHGLEVMGLIRVPLYTLRDRVGGLPAFLCNNFIGNSKSQLLYALRSLKLLREDQIQEVLKASHRLQY
soluble on expression in E. coli: soluble

MSEQLVTPENVTTKDGKINLLDLNRQQMREFFKDLGEKPFRADQVMKWMYHYCDNFDEMTDINKVLRGKLKEVAEIRAPEVVEEQRSSDGTIKWAIAVGDQRVETVYIPEDDRATLCVSSQVGCALECKFCSTAQQGFNRNLRVSEIIGQVWRAAKIVGAAKVTGQRPITNVVMMGMGEPLLNLNNVVPAMEIMLDDFGFGLSKRRVTLSTSGVVPALDKLGDMIDVALAISLHAPNDEIRDEIVPINKKYNIETFLAAVRRYLEKSNANQGRVTIEYVMLDHVNDGTEHAHQLAELLKDTPCKINLIPWNPFPGAPYGRSSNSRIDRFSKVLMSYGFTTIVRKTRGDDIDAACGQLAGDVIDRTKRTLRKRMQGEAIDIKAV
soluble on expression in E. coli: not soluble

MGSDKIHHHHHHMNFLDGHLFPENQQPLIITAAPYAPSWMPSDFPEDIAVTMEDQIQKAVDCYNAGATVLHLHVRELDGKGSKRLSKFNELIAGVRARVPEMIIQVGGSISFAPESEGAAAKWLSDDTRHMLAELEPTPDQVTVTVNTSQMNILEQFDHRDIVGSSMEDPEVFNAYKEMTVPAQPGWVEEHVRRLTAAGIQSAFQCYNLNSFESVERLMRRGIYKGPLVLNWVAIGGGMDSPSVYSLANFVRAVPDGAVLTVESSVCNVLPVNTMGIAMGLHVRCGTEDTLWNQTRTKKMGTVAQIEQLVRISEEMSRPIATARQAREMCRIGEFYDTVDETLQANGFAPNRNGGQQGFLRKVA
soluble on expression in E. coli: not soluble

MSLEEILIIDDSRQIADFLAETVLPYYGYRSRVVPTGWEGLAFLKQRQPDLILLDLQLPDTSGLDVLRQMGELGYDIPVILMTAHGTEQTAVEAFRLGAKNYLIKPFDASEAGAAIERALRERRLQREKEVLTRTLQQRLQELTILSSVGKSVTSLLDLEELLERIVDAGVYLTHAEEGYLLLRDGDELYLRAAKNLGEERVQRFRVKMDDNVAGQVIRTVKPIRLDRSQHQDLKLRTGLLVQAMLQVPLIVGRHAIGVLAVDNRVQQRTFSENDQYLLSAIADYAAIAIENSREGHHHHHH
soluble on expression in E. coli: soluble

MSTQEVNITLTDFINQLDSNAEQVSFEQVMKVISENYNYLPATFNNGDLFNEAGTNEGSCKIFYFAKLNNLSEQQTLACFGRFYREDVVNNPQGNDHGNIRNFMQSGWSKVEFNSVALTPLT
soluble on expression in E. coli: not soluble

MDEYSPKRHDIAQLKFLCETLYHDCLANLEESNHGWVNDPTSAVNLQLNELIEHIATFALNYKIKYNEDNKLIAQIDEYLDDTFMLFSSYGINTQDLQKWRKSGNRLFRCFVNATRANPVSLSCLEHHHHHH
soluble on expression in E. coli: not soluble

SEPTAPSLTEEDLTEVKKDALENLRVYLCEKIIAERHFDHLRAKKILSREDTEEISCRTSSRKRAGKLLDYLQENPKGLDTLVESIRREKTQNFLIQKITDEVLKLRNIKLEHLKGLKCSSCEPFPDGATNNLSRSNSDESNFSEKLRASTVMYHPEGESSTTPFFSTNSSLNLPVLEVGRTENTIFSSTTLPRPGDPGAPPLPPDLQLEEEGTCANSSEMFLPLRSRTVSRQ
soluble on expression in E. coli: soluble

MGSDKIHHHHHHMAFNFGCLNSPETVSSALATRENSLGLAIDPFLAPVAMVATQDIVLRQYFRERIVLGQENLPMQGPVLLAPTHRSRWDALMLPMAAGRRVTGRDCRFMVTVDEMKGLQGWFLHRLGCFPVNQSKPSLTSLRYAIDLMADGQQVVVFPEGTINRTEKPIKLYQGLARLAQLAKSQNIDVQVVPVGLGYSEVIPKACGRASICFAEPMKVLETGREAVKSFNAELSEKMHAAEQAALHAVGRLKKAP
soluble on expression in E. coli: not soluble

MHPKDQSVTLLSIIRDYLKLSDKEREAARILANGLVKVDGKTVREKKFAVGFMDVIEINGESYRVVYNDQGALVLMKETKERASMKLLKVRSKVIAPGNRIQLGTHDGRTFITDDKSKKVGDVWAVSVPDMKISEIIKMQPGNKAYITAGSHVNQTGTISKIEAKEGSSANLVHFQEGFSTIKDHVFMIGSSKFSFVLSPEEVIPLEHHHHHH
soluble on expression in E. coli: soluble
